Laboratory results as given in patent US20250277029A1 (Amgen, published 2025).
Substitutions are numbered along the chain they refer to. Numbers in names are those of the source.

B1: LIBC523797-1 (antibody, V domains shown)
VH: QVQLQESGPGLVKPSQTLSLTCTVSGGSIRRGGDYWSWIRQHPGKGLEWIGHVYYTGSTKYNPNFKGRATISVNTYKNQFSLKLSSVTAADTAVYYCARDYDILTGYSYYYYGMDVWGQGTTVTVSS
VL: DIVMTQSPLSLPVTPGEPASISCRSSQSLLTSYGINYVDWYLQKPGQSPQLLIYQGSNRASGVPDRFSGSGSGTDFTLKISRVEAEDVGVYYCRQAVGLPRTFGQGTKVEIKR
notes: Expressed as IgG1 SEFL2 mAb
B2: LIBC523857-1 (antibody, V domains shown)
VH: B1 VH with V53I, Y55Q, S58Q, K60A, N64R, F65L, K66E
VL: B1 VL with T31S, Y33T, I35A, V38L, Q55L, G98E
B3: LIBC523670-1 (antibody, V domains shown)
VH: B1 VH with S37A, Y55Q, S58Q, K60A, F65L, K66E, G67S, D100N, I103V, T105S
VL: B1 VL with I35A, V38L, R94M, V97L, G98Q, L99I
notes: also called LIBC523670-1 + VK2 germline fix
B4: 10D10 HC D83K/LC N35Y (26970-1) (antibody, V domains shown)
VH: B1 VH with H52Y, V53I, T56S, K60N, N64S, F65L, G67S, N74K, Y76S
VL: not shown
notes: Earlier 10D10 variant used as benchmark
B5: LIBC528131-1 (antibody, V domains shown)
VH: B1 VH with V53I, Y55Q, S58Q, K60A, F65L, K66E
VL: EIVLTQSPATLSLSPGERATLSCRASQSVSSYLGWYQQKPGQAPRLLIYGASSRATGIPDRFSGSGSGTDFTLTISRLEPEDFAVYYCQQYGSSPRTFGQGTKVEIKR
notes: VK3 LC
B6: LIBC680562-1 (yeast-displayed Fab) (Fab, V domains shown)
VH: B1 VH with S37A, V53I, Y55Q, K60N, N64R, D100N, I103T
VL: DIQMTQSPSSLSASVGDRVTITCRASQSISSYLNWYQQKPGKAPKLLIYSARRLSSGVPSRFSGSGSGTDFTLTISSLQPEDFATYYCQQYAKSPITFGGGTKVEIKR
B7: LIBC527912-1 (antibody, V domains shown)
VH: B1 VH with H52Y, V53I, Y55Q, S58Q, K66E
VL: B6 VL with M4L, S50A, R52S, R53S, S55R, A92S, K93N, S94Y, I96L, K103R
B8: LIBC523603-1 (antibody, V domains shown)
VH: B1 VH with S37A, Y55Q, T56S, S58Q, K60A, K66E, G67N, I103A, L104V, T105S
VL: B1 VL with T31S, I35N
B9: LIBC681593-1 (yeast-displayed Fab) (Fab, V domains shown)
VH: B1 VH with S37A, V53I, Y55Q, K60N, N64R, D100N, I103T
VL: B6 VL with S50N, S55G, A92R, K93S, I96V
B10: LIBC680800-1 (yeast-displayed Fab) (Fab, V domains shown)
VH: B1 VH with S37A, V53I, Y55Q, K60N, N64R, D100N, I103T
VL: B6 VL with R53A, A92R, S94F, I96L
B11: LIBC527879-1 (antibody, V domains shown)
VH: B1 VH with S37G, V53I, Y55Q, T56S, K60N, N64K, F65L, G67S, N74D, L104F
VL: DIQLTQSPSSLSASVGDRVTITCRASQSIISYLNWYQQKPGKAPKLLIYAASSLRSGVPSRFSGSGSGTDFTLTISSLQPEDFATYYCQQYSNYPLTFGGGTRVEIKR
B12: LIBC523797-1 (antibody, IgG1, V domains shown)
VH: B1 VH
VL: B1 VL
B13: LIBC680574-1 (yeast-displayed Fab) (Fab, V domains shown)
VH: B1 VH with S37A, N64S, G67D, D100N, I103T
VL: B6 VL with S50G, S55G, A92S, K93S, S94L, I96V
B14: LIBC528116-1 (antibody, IgG1, V domains shown)
VH: B1 VH with S37A, K60N, N64R, G67D, D100N, I103T, L104V
VL: B11 VL with S10T, I30S, S31N, R55H, T85S, S92Q, N93S, G100Q, R103K
notes: also called 37940-4
B15: LIBC527827-1 (antibody, V domains shown)
VH: QVQLQESGPGLVKPSQTLSLTCTVSGGSIRRGGDYWGWIRQHPGKGLEWIGHVYQSGQTAYNPKFENRATISVKTYKNQFSLKLSSVTAADTAVYYCARNYDTLTGHSYYYYGMDVWGQGTTVTVSS
VL: B11 VL with L4M, S10T, I30S, S31N, R55H, T85S, S92Q, N93S, G100Q, R103K
notes: also called LIBC527827-1 + VK1 germline fix(es)
B16: LIBC527968-1 (antibody, V domains shown)
VH: B1 VH with V53I, Y55Q, T56S, N64S, G67D
VL: B11 VL with S10T, I30S, S31N, R55H, T85S, S92Q, N93S, G100Q, R103K
notes: also called LIBC527968-1 + VK1 germline fix(es)
B17: LIBC528141-1 (antibody, V domains shown)
VH: B1 VH with Y55Q, N64R
VL: B11 VL with S10T, I30S, S31N, R55H, T85S, S92Q, N93S, G100Q, R103K
B18: LIBC527906-1 (antibody, V domains shown)
VH: B1 VH with S37G, V53I, Y55Q, K60N, G67D, N74D
VL: B11 VL with S10T, I30S, S31N, R55H, T85S, S92Q, N93S, G100Q, R103K
notes: also called LIBC527906-1 + VK1 germline fix(es)
B19: LIBC527984-1 (antibody, V domains shown)
VH: B1 VH with V53I, Y55Q, S58K, K60N, G67S
VL: B11 VL with L4M, S10T, I30S, S31N, R55H, T85S, S92Q, N93S, G100Q, R103K
notes: also called LIBC527984-1 + VK1 germline fix(es)
B20: LIBC528169-1 (antibody, V domains shown)
VH: B1 VH with V53I, Y55Q, T56S, N64S, K66E, G67D
VL: B11 VL with S10T, I30S, S31N, R55H, T85S, S92Q, N93S, G100Q, R103K
notes: also called LIBC528169-1 + VK1 germline fix(es)
B21: LIBC527869-1 (antibody, V domains shown)
VH: QVQLQESGPGLVKPSQTLSLTCTVSGGNIRRGGDYWAWIRQHPGKGLEWIGHIYHTGKTNYNPSFKGRATISVKTYKNQFSLKLSSVTAADTAVYYCARNYDTLSGNSYYYYGMDVWGQGTTVTVSS
VL: B11 VL with S10T, I30S, S31N, R55H, T85S, S92Q, N93S, G100Q, R103K
notes: also called LIBC527869-1 + VK1 germline fix(es)

What was measured:
[1] = target: human cannabinoid receptor 1 (huCB1), full length, expressed on cells (human, UniProt P21554 1-472); assay: cell-based or functional assay
[2] = target: T1, huCB1 nanodisc (CB1-ND) (human, UniProt P21554 99-414); assay: Octet BLI; antibody captured by anti-human Fc, CB1-nanodisc in solution, 1:1 model
T1 construct: The His-tagged CB1 is embedded in a POPC lipid nanodisc with MSP1D1 scaffold protein (molar ratio 480:8:1); also called huCB1-ND; #CB1-008

[3] = target: T2, His-tagged huCB1-ND (human CB1 in nanodisc) (human); assay: flow cytometry, yeast-displayed IgG, huCB1-ND over empty-ND
T2 construct: CB1 construct of Cell 167(3) (2016) 750-762 expressed in Sf9 cells; POPC:MSP1D1:CB1 480:8:1; also called CB1-nanodisc; huCB1-Nanodisc; not shown: histidine purification tag

[4] = target: T2, His-tagged huCB1-ND (human CB1 in …); assay: flow cytometry, yeast-displayed IgG, binding/display ratio
[5] = target: T3, GFP-fused huCB1-SMALP (human CB1 in styrene maleic acid lipoparticles) (human, UniProt P21554 1-472); assay: flow cytometry, yeast-displayed IgG, GFP MFI
T3 construct: Prepared as in Luna V. et al. 2018; also called huCB1-GFP-SMALP; wtCB1-SMALP; not shown: GFP fusion

[6] = target: T4, mouse CB1 (mouse, UniProt P47746 1-473); assay: fold over mock (Table 14)
T4 construct: also called muCB1; murine CB1

[7] = target: T5, human cannabinoid receptor type 2 (CB2) (human, UniProt P34972 1-360); assay: fold over mock (Table 14)
T5 construct: also called huCB2; full length hu CB2

[8] = target: T3, GFP-fused huCB1-SMALP (human CB1 in …); assay: flow cytometry, yeast-displayed IgG, GFP MFI; remark: listed apart in the source
[9] = target: T2, His-tagged huCB1-ND (human CB1 in …); assay: flow cytometry, yeast-displayed IgG, binding/display ratio; remark: listed apart in the source
[10] = target: T6, empty-ND (nanodisc without CB1); assay: as above
T6 construct: its only protein is the nanodisc scaffold; also called Empty Nanodisc

[11] = target: T7, GFP-fused huCB1 in styrene maleic acid lipoparticles (CB1-SMALP-GFP) (human, UniProt P21554 1-472); assay: flow cytometry, yeast-displayed Fab, 2.5 nM CB1-SMALP-GFP, after background subtraction
T7 construct: Prepared as described in Luna V. et al. 2018; also called huCB1-GFP-SMALP; GFP-tagged huCB1-SMALP; not shown: GFP fused to huCB1

[12] = target: empty nanodisc (Empty ND); assay: flow cytometry, yeast-displayed Fab, 50 nM Empty ND, after background subtraction
[13] = target: T1, huCB1 nanodisc (CB1-ND); assay: flow cytometry, yeast-displayed Fab, 0.2 nM CB1-ND, after background subtraction

Sequence of empty nanodisc (Empty ND) (P02647 79-267): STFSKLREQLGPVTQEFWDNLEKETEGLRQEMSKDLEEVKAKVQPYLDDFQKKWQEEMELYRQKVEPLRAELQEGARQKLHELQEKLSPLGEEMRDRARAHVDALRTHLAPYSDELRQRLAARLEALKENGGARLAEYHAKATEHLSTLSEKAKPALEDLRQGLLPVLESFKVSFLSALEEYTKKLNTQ
T4 sequence (P47746 whole entry): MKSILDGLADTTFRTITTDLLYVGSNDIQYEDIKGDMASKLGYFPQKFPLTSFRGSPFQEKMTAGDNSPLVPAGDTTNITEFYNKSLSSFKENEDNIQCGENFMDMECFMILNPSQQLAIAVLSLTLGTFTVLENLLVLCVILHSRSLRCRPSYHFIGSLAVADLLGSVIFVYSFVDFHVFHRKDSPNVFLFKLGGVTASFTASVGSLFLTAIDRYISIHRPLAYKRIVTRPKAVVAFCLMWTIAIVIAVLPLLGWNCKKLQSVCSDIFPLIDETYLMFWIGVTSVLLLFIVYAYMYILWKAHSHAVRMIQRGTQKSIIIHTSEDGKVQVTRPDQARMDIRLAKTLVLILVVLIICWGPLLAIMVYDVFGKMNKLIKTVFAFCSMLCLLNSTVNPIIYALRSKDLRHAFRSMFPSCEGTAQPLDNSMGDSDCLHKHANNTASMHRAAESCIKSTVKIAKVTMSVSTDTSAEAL
T7 sequence (P21554 whole entry, the tested form may be a part): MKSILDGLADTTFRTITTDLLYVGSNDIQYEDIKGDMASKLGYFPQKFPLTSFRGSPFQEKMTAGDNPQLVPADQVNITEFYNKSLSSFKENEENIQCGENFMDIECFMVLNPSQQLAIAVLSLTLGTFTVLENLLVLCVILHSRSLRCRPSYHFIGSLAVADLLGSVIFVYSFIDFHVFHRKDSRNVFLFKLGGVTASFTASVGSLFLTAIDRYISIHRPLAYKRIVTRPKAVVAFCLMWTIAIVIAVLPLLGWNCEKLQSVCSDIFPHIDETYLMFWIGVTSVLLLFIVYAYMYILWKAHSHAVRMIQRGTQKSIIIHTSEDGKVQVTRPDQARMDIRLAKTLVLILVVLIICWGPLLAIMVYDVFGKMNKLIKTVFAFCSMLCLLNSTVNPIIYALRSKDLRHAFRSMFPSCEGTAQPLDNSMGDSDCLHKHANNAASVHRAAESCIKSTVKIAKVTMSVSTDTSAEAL
T3 sequence (P21554 whole entry, the tested form may be a part): as above
Sequence of human cannabinoid receptor 1 (huCB1), full length, expressed on cells (P21554 whole entry): as the sequence (P21554 whole entry, the tested form may be a part) above
T5 sequence (P34972 whole entry): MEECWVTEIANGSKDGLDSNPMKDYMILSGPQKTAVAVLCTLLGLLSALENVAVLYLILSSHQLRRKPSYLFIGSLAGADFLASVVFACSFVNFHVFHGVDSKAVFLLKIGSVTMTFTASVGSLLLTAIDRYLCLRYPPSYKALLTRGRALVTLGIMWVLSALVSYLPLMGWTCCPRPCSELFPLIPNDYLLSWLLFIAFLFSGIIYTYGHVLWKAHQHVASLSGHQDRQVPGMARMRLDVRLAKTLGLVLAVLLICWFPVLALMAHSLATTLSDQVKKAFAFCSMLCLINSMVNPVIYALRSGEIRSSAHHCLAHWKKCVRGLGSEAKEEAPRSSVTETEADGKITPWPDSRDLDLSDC
T1 sequence (P21554 99-414 limits assumed): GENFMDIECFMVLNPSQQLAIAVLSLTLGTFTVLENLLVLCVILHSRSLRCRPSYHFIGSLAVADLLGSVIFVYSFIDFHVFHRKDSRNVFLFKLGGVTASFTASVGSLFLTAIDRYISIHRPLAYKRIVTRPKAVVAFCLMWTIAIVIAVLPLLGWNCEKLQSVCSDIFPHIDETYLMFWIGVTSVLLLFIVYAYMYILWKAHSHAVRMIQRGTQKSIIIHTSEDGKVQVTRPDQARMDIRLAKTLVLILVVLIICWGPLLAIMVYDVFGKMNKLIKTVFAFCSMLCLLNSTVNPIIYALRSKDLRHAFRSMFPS
T2 sequence (P21554 99-414): as the sequence (P21554 99-414 limits assumed) above

Row | Binder | 100 nM huCB1-GFP-SMALP binding (normalized to 10D10N35Y) [8] [fold] | 0.200 nM huCB1-Nanodisc binding (relative to 10D10N35Y) [9] [fold] | 50.0 nM Empty Nanodisc binding (relative to 10D10N35Y) [10] [fold] | further results
1 | B1 | – | – | – | Antagonist assay IC50 (nM), 2-AG [1]: 2.9 nM; Antagonist assay IC50 (nM), Anandamide [1]: 10.4 nM; Antagonist assay IC50 (nM), CP 55,940 [1]: 3.4 nM; Inverse agonist assay IC50 [1]: 14.1 nM; Kd [2]: 18 nM
2 | B2 | – | – | – | specific huCB1 binding (CB1 ND/Empty ND ratio) [3]: 13.9 ratio; relative binding to 0.2 nM huCB1-ND (relative to 10D10N35Y) [4]: 4.05 fold; 100 nM huCB1-SMALP binding (normalized to 10D10) [5]: 4.71 fold
3 | B3 | – | – | – | specific huCB1 binding (CB1 ND/Empty ND ratio) [3]: 23 ratio; relative binding to 0.2 nM huCB1-ND (relative to 10D10N35Y) [4]: 7.46 fold; 100 nM huCB1-SMALP binding (normalized to 10D10) [5]: 5.42 fold
4 | B4 | – | – | – | binding result [6]: no binding; binding result [7]: no binding
5 | B5 | 3.68 | 4.47 | 0.63 | –
6 | B6 | – | – | – | Relative binding fold change compared to LIBC528116 (Fab) [11]: 1.94 fold; Relative binding fold change compared to LIBC528116 (Fab) [12]: 0.68 fold; Relative binding fold change compared to LIBC528116 (Fab) [13]: 3.34 fold
7 | B7 | 4.32 | 5.95 | 0.51 | –
8 | B8 | – | – | – | specific huCB1 binding (CB1 ND/Empty ND ratio) [3]: 19.4 ratio; relative binding to 0.2 nM huCB1-ND (relative to 10D10N35Y) [4]: 6.05 fold; 100 nM huCB1-SMALP binding (normalized to 10D10) [5]: 4.05 fold
9 | B9 | – | – | – | Relative binding fold change compared to LIBC528116 (Fab) [11]: 2.37 fold; Relative binding fold change compared to LIBC528116 (Fab) [12]: 0.91 fold
10 | B10 | – | – | – | Relative binding fold change compared to LIBC528116 (Fab) [11]: 1.76 fold; Relative binding fold change compared to LIBC528116 (Fab) [12]: 0.78 fold; Relative binding fold change compared to LIBC528116 (Fab) [13]: 2.52 fold
11 | B11 | 3.24 | 5.75 | 0.73 | –
12 | B12 | – | – | – | binding result [6]: no binding; binding result [7]: no binding; 100 nM huCB1-SMALP binding (normalized to 10D10) [5]: 7.01 fold
13 | B13 | – | – | – | Relative binding fold change compared to LIBC528116 (Fab) [11]: 1.72 fold; Relative binding fold change compared to LIBC528116 (Fab) [12]: 0.72 fold
14 | B14 | 5.8 | – | – | binding result [6]: no binding; binding result [7]: no binding
15 | B15 | 4.99 | 4.31 | 1.16 | –
16 | B16 | 4.65 | 4.86 | 0.64 | –
17 | B17 | 8.31 | 6.2 | 0.49 | –
18 | B18 | 3.79 | 8.02 | 0.51 | –
19 | B19 | 4.85 | 5.21 | 0.61 | –
20 | B20 | 4.58 | 4.82 | 0.68 | –
21 | B21 | 3.61 | 4.15 | 0.97 | –
